Assay results taken from article PMC5336696, “Structural basis for potency differences between GDF8 and GDF11” (BMC Biology, 2017).

T1: mature growth/differentiation factor 11 (GDF11) (human) (UniProt O95390)
T1 sequence: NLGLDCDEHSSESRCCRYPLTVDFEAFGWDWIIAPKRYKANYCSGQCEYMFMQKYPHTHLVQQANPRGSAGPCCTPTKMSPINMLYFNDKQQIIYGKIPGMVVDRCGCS

T2: mature growth/differentiation factor 8 (GDF8) (human) (UniProt O14793)
T2 sequence: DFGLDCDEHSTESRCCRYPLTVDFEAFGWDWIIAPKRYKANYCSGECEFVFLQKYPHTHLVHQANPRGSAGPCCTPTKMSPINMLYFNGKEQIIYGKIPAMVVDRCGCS

T3: mature growth/differentiation factor 11 (GDF11) (human, UniProt O95390 299-407)
T3 sequence (looked up): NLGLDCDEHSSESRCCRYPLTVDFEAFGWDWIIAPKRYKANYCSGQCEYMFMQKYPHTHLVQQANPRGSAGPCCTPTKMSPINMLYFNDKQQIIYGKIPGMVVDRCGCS

T4: mature growth/differentiation factor 8 (GDF8) (human, UniProt O14793 267-375)
T4 sequence (looked up): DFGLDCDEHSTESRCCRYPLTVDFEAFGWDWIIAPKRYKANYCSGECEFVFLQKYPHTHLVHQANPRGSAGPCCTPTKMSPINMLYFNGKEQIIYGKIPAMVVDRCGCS


What was measured:
[1] = biological target: T1, mature growth/differentiation factor 11 (GDF11) (human)
[2] = biological target: T2, mature growth/differentiation factor 8 (GDF8) (human)
[3] = biological target: T3, mature growth/differentiation factor 11 …; assay: cell-based or functional assay
[4] = biological target: T3, mature growth/differentiation factor 11 …; assay: cell-based or functional assay; remark: listed apart in the source
[5] = biological target: T4, mature growth/differentiation factor 8 …; assay: cell-based or functional assay
[6] = biological target: T3, mature growth/differentiation factor 11 …; assay: cell-based or functional assay; remark: listed apart in the source
[7] = biological target: T4, mature growth/differentiation factor 8 …; assay: cell-based or functional assay; remark: listed apart in the source

IC50 of inhibition of 0.62 nM GDF11, (CAGA)12 luciferase reporter in HEK293 cells [1] [nM] | IC50 of inhibition of 0.62 nM GDF8, (CAGA)12 luciferase reporter in HEK293 cells [2] [nM] | IC50 of inhibition of 0.62 nM GDF11 by the soluble receptor, (CAGA)12 luciferase reporter in HEK293 cells [4] [nM] | IC50 of inhibition of 0.62 nM GDF8 by the soluble receptor, (CAGA)12 luciferase reporter in HEK293 cells [5] [nM] | Binder | also measured
18.3 | 4.1 | – | – | GASP2 (natural protein) AGLLPGLGSHPGVCPNQLSPNLWVDAQSTCERECSRDQDCAAAEKCCINVCGLHSCVAARFPGSPAAPTTAASCEGFVCPQQGSDCDIWDGQPVCRCRDRCEKEPSFTCASDGLTYYNRCYMDAEACLRGLHLHIVPCKHVLSWPPSSPGPPETTARPTPGAAPVPPALYSSPSPQAVQVGGTASLHCDVSGRPPPAVTWEKQSHQRENLIMRPDQMYGNVVVTSIGQLVLYNARPEDAGLYTCTARNAAGLLRADFPLSVVQREPARDAAPSIPAPAECLPDVQACTGPTSPHLVLWHYDPQRGGCMTFPARGCDGAARGFETYEACQQACARGPGDACVLPAVQGPCRGWEPRWAYSPLLQQCHPFVYGGCEGNGNNFHSRESCEDACPVPRTPPCRACRLRSKLALSLCRSDFAIVGRLTEVLEEPEAAGGIARVALEDVLKDDKMGLKFLGTKYLEVTLSGMDWACPCPNMTAGDGPLVIMGEVRDGVAVLDAGSYVRAASEKRVKKILELLEKQACELLNRFQD | –
– | – | 13 | 12.4 | ActRIIB extracellular domain (ActRIIB-ECD) (receptor, UniProt P38445 19-137, looked up) SGRGEAETRECIYYNANWELERTNQSGLERCEGEQDKRLHCYASWRNSSGTIELVKKGCWLDDFNCYDRQECVATEENPQVYFCCCEGNFCNERFTHLPEPGGPEVTYEPPPTAPTLLT | IC50 of inhibition of 0.62 nM GDF11 by the soluble receptor, (CAGA)12 luciferase reporter in HEK293 cells (value of the text) [3]: 14 nM
– | – | 10.3 | 3 | Fc-ActRIIB-ECD (Fc fusion, UniProt Q13705 19-137, looked up) SGRGEAETRECIYYNANWELERTNQSGLERCEGEQDKRLHCYASWRNSSGTIELVKKGCWLDDFNCYDRQECVATEENPQVYFCCCEGNFCNERFTHLPEAGGPEVTYEPPPTAPTLLT | –
4 | 1.2 | – | – | follistatin-like 3 (FSTL3) (natural protein) MGSGNPAPGGVCWLQQGQEATCSLVLQTDVTRAECCASGNIDTAWSNLTHPGNKINLLGFLGLVHCLPCKDSCDGVECGPGKACRMLGGRPRCECAPDCSGLPARLQVCGSDGATYRDECELRAARCRGHPDLSVMYRGRCRKSCEHVVCPRPQSCVVDQTGSAHCVVCRAAPCPVPSSPGQELCGNNNVTYISSCHMRQATCFLGRSIGVRHAGSCAGTPEEPPGGESAEEEENFV | –
0.3 | 0.2 | – | – | growth/differentiation factor-associated serum protein 1 (GASP1) (natural protein) LPPIRYSHAGICPNDMNPNLWVDAQSTCRRECETDQECETYEKCCPNVCGTKSCVAARYMDVKGKKGPVGMPKEATCDHFMCLQQGSECDIWDGQPVCKCKDRCEKEPSFTCASDGLTYYNRCYMDAEACSKGITLAVVTCRYHFTWPNTSPPPPETTMHPTTASPETPELDMAAPALLNNPVHQSVTMGETVSFLCDVVGRPRPEITWEKQLEDRENVVMRPNHVRGNVVVTNIAQLVIYNAQLQDAGIYTCTARNVAGVLRADFPLSVVRGHQAAATSESSPNGTAFPAAECLKPPDSEDCGEEQTRWHFDAQANNCLTFTFGHCHRNLNHFETYEACMLACMSGPLAACSLPALQGPCKAYAPRWAYNSQTGQCQSFVYGGCEGNGNNFESREACEESCPFPRGNQRCRACKPRQKLVTSFCRSDFVILGRVSELTEEPDSGRALVTVDEVLKDEKMGLKFLGQEPLEVTLLHVDWACPCPNVTVSEMPLIIMGEVDGGMAMLRPDSFVGASSARRVRKLREVMHKKTCDVLKEFLGLH | –
– | – | – | – | follistatin 288 (FS288) (natural protein, UniProt P19883-2 30-317, looked up) GNCWLRQAKNGRCQVLYKTELSKEECCSTGRLSTSWTEEDVNDNTLFKWMIFNGGAPNCIPCKETCENVDCGPGKKCRMNKKNKPRCVCAPDCSNITWKGPVCGLDGKTYRNECALLKARCKEQPELEVQYQGRCKKTCRDVFCPGSSTCVVDQTNNAYCVTCNRICPEPASSEQYLCGNDGVTYSSACHLRKATCLLGRSIGLAYEGKCIKAKSCEDIQCTGGKKCLWDFKVGRGRCSLCDELCPDSKSDEPVCASDNATYASECAMKEAACSSGVLLEVKHSGSCN | IC50 of inhibition of 0.62 nM GDF11, (CAGA)12 luciferase reporter in HEK293 cells [6]: 0.3 nM; IC50 of inhibition of 0.62 nM GDF8, (CAGA)12 luciferase reporter in HEK293 cells [7]: 0.2 nM
